Results: paper PMC9646525, “Cryo-EM structure of the SEA complex” (Nature, 2022)

Columns and labels:
Sea2 = target: T1, Sea2 (S. cerevisiae (endogenous in yeast …, UniProt Q08281 1-1341)); assay: cryo-EM structure; endogenous SEAC purified from yeast via Sea4-TAP (IgG Dynabeads, TEV elution in 20 mM HEPES-NaOH pH 7.4, 300 mM NaCl, 2 mM DTT), on graphene-oxide-coated grids; settings: both partners purified
T1 construct: Sea2, S. cerevisiae, endogenous subunit of the SEAC (SEACAT, core); Native protein of the purified complex; two copies in the SEAC; source: endogenous, yeast cells expressing Sea4-TAP; in lysate and co-purified with Sea4-TAP (IgG Dynabeads, TEV elution)
T1 sequence (looked up): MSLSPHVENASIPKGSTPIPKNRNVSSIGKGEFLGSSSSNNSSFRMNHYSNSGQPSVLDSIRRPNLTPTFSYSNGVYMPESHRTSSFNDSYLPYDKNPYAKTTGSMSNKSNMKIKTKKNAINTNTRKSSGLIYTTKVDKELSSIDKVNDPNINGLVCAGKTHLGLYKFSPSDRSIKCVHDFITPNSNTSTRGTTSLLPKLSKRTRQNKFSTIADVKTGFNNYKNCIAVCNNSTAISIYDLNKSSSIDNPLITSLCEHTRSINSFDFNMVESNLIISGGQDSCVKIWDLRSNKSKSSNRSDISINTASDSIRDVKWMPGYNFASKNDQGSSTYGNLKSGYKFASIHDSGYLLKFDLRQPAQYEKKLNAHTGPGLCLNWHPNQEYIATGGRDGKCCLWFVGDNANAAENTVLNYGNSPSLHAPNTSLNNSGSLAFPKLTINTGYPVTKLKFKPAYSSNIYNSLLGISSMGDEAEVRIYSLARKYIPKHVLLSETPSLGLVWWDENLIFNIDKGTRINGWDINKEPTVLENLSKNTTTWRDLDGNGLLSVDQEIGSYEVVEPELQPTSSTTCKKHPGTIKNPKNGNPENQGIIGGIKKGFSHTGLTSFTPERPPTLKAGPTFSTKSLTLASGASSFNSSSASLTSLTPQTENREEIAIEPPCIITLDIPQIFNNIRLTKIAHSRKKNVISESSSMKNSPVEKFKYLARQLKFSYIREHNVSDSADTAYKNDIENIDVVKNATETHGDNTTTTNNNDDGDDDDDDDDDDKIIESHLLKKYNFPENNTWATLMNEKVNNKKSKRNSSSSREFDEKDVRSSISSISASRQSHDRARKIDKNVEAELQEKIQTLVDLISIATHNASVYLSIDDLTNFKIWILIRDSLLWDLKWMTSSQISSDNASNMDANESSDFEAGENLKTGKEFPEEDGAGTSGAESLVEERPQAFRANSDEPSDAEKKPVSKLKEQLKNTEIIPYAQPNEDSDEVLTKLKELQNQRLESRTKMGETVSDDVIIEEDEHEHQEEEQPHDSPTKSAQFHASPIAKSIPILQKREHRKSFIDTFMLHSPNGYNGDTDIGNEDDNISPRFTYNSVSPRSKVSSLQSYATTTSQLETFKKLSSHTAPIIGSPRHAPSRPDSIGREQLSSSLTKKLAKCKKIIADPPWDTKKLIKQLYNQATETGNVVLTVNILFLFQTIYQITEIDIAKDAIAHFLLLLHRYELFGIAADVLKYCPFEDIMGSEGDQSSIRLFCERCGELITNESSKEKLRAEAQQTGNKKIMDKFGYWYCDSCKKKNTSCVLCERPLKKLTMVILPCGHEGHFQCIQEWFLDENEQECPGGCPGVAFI

Sea3 = target: T2, Sea3 (S. cerevisiae (endogenous in yeast …, UniProt Q03897 1-1148)); assay: as above; settings: both partners purified
T2 construct: Sea3, S. cerevisiae, endogenous subunit of the SEAC; Sea3^SIP (Sea3^Nter) lies in the wing, Sea3^SAP (Sea3^Cter) in the core; Native protein of the purified complex; two copies in the SEAC; source: endogenous, yeast cells expressing Sea4-TAP; in lysate and co-purified with Sea4-TAP (IgG Dynabeads, TEV elution)
T2 sequence (looked up): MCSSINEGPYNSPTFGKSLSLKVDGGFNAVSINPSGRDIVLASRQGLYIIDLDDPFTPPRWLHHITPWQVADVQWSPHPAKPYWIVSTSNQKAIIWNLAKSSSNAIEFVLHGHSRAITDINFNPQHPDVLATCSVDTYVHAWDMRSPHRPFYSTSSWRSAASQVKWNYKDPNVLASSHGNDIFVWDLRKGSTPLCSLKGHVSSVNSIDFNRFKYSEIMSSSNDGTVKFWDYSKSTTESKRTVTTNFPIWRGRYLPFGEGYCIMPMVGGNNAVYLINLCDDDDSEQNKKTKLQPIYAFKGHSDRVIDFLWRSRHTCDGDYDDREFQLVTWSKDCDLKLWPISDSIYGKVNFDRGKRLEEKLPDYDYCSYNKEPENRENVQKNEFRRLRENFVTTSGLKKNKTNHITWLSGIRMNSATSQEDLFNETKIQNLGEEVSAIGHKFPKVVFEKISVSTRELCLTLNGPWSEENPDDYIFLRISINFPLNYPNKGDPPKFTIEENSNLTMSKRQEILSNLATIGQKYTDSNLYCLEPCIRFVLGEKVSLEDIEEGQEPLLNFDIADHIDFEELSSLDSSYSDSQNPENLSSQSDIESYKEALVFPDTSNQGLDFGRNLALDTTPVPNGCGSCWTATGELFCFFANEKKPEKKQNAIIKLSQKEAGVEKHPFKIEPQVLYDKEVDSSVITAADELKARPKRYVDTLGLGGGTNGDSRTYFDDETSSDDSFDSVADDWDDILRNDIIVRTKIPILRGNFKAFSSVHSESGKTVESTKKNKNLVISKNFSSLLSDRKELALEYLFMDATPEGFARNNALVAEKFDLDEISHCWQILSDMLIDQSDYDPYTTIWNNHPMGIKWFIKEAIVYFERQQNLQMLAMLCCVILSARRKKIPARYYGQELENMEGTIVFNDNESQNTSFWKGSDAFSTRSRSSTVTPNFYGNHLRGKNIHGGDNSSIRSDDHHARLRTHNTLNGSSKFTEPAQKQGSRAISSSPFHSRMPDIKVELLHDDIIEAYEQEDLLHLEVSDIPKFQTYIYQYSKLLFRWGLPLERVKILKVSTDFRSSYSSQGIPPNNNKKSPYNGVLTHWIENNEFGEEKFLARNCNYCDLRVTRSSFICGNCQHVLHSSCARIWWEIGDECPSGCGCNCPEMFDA

B1: Seh1 (natural protein, UniProt P53011 1-349, looked up)
chain: MQPFDSGHDDLVHDVVYDFYGRHVATCSSDQHIKVFKLDKDTSNWELSDSWRAHDSSIVAIDWASPEYGRIIASASYDKTVKLWEEDPDQEECSGRRWNKLCTLNDSKGSLYSVKFAPAHLGLKLACLGNDGILRLYDALEPSDLRSWTLTSEMKVLSIPPANHLQSDFCLSWCPSRFSPEKLAVSALEQAIIYQRGKDGKLHVAAKLPGHKSLIRSISWAPSIGRWYQLIATGCKDGRIRIFKITEKLSPLASEESLTNSNMFDNSADVDMDAQGRSDSNTEEKAELQSNLQVELLSEHDDHNGEVWSVSWNLTGTILSSAGDDGKVRLWKATYSNEFKCMSVITAQQ
notes: Seh1, S. cerevisiae, endogenous subunit of the SEAC (SEACAT, core); Native protein of the purified complex; six copies in the SEAC; source: endogenous, yeast cells expressing Sea4-TAP; in lysate and co-purified with Sea4-TAP (IgG Dynabeads, TEV elution)
B1: binds (Sea2); binds (Sea3).
